In PMC6008203:
Where a chain is given by its changes, count along the chain named. Numbers in names are those of the source.

B1: PtmA2 (Streptomyces platensis; A497K) (protein)
chain: MQHTTIGDVLREHRRSHPGRTALVDGPVRLTWPELDDRVNRLAGSLAASGIGRGDRIMWLGQNSFRVYELIAAAGKLGAMVCVGYWRWAPPEMEFALRDFDPHLVVWQHQEIHETVARTREALGSDDTARWLRHDSAPQDPDGYEAFLAAGGLADPDLDIDPDSPVLVLYTAAMSGRQCGSLLSHTNLIAMATAAAWLGDIDHTTAFLNSGPMFHIGNHQFWGMPTLLMAGKNVIVRRVVAEEVRDLLVAEECTHAFLMPPTVAEIVRLNRDTGHDLSRLRATVAPHLWEGMATTDTSRFTRSGAAAGRGYGQTELSGFAVTAAYGGPAAGNAGRPGPGLTVRVLDTAGRECAVGEAGEICARGTVVHRGYWNRDEVNAHRFRSGWWHTTDLGRREPDGSLTFLGTTTRMLKSAAENIFPAEVENCIEQHPAVREAAVIGVPNTRWAQDVKAVVVLEPDAGVSEQEIIDHCRPRIASYKKPKSVAFAAALPRTVSGKRDYDALDKEYGGGGYPGAATLGPGR
B2: PtmA2 (Streptomyces platensis; E416A) (protein)
chain: B1 chain with E416A, K497A
B3: PtmA2 (Streptomyces platensis) (protein)
chain: B1 chain with K497A
B4: PtmA2 (Streptomyces platensis; A172S/A173G/A497K/C179K/M174T/Q178P) (protein)
chain: B1 chain with A172S, A173G, M174T, Q178P, C179K
B5: PtmA2 (Streptomyces platensis; A172S/A173G/C179K/M174T/Q178P) (protein)
chain: B1 chain with A172S, A173G, M174T, Q178P, C179K, K497A

Substrate: CC(C)(COP(=O)(O)OP(=O)(O)OC[C@H]1O[C@@H](n2cnc3c(N)ncnc32)[C@H](O)[C@@H]1OP(=O)(O)O)[C@@H](O)C(=O)NCCC(=O)NCCS
Test: purified protein
Format: biochemical, Streptomyces platensis
Conditions: saturating 6 (100 μM), Tris pH 7.8, 25 °C

| Protein | Km [µM] | Vmax [µmol/min] | kcat [s⁻¹] | kcat/Km [M⁻¹ s⁻¹] | further results |
| --- | --- | --- | --- | --- | --- |
| B1 | 6.8 ± 1.0 | 4.74 | 32 | 4.7e+06 | – |
| B2 | 7.8 ± 1.2 | 5.34 | 0.18 | 23000 | – |
| B3 | 6.2 ± 0.6 | 5.82 | 20 | 3.2e+06 | – |
| B4 | – | – | – | – | Km (A497K/P-loop mutant): 69 ± 11 µM; Vmax (A497K/P-loop mutant): 5.94 µmol/min; kcat (A497K/P-loop mutant): 10 s⁻¹; kcat/Km (A497K/P-loop mutant): 140000 M⁻¹ s⁻¹ |
| B5 | – | – | – | – | Km (P-loop mutant): 70 ± 8 µM; Vmax (P-loop mutant): 8.88 µmol/min; kcat (P-loop mutant): 7.4 s⁻¹; kcat/Km (P-loop mutant): 110000 M⁻¹ s⁻¹ |
